B1: ZNF449 (parent)
chain: HKKKSPGEKPHRCPQCGKCFARKS

Variants of: B1
Assay: protein stability index of a GFP-peptide fusion (GPS, HEK-293T) (PSI 1-6); higher = more stable
Conditions: c terminus: a fixed tail appended
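Also: lentivirally expressed fusions sorted by FACS into six bins by GFP to DsRed ratio, PSI derived from sequencing read proportions per bin multiplied by bin number.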

Row | Variant | protein stability index
1 | HWKKSPGEKPHRCPQCGKCFARKS [K2W] | 3.04
2 | HTKKSPGEKPHRCPQCGKCFARKS [K2T] | 3.03
3 | HMKKSPGEKPHRCPQCGKCFARKS [K2M] | 2.52
4 | HPKKSPGEKPHRCPQCGKCFARKS [K2P] | 3.46
5 | HGKKSPGEKPHRCPQCGKCFARKS [K2G] | 3.43
6 | HCKKSPGEKPHRCPQCGKCFARKS [K2C] | 3.21
7 | HVKKSPGEKPHRCPQCGKCFARKS [K2V] | 3.25
8 | HQKKSPGEKPHRCPQCGKCFARKS [K2Q] | 3.36
9 | HLKKSPGEKPHRCPQCGKCFARKS [K2L] | 3.41
10 | HSKKSPGEKPHRCPQCGKCFARKS [K2S] | 3.19
11 | HNKKSPGEKPHRCPQCGKCFARKS [K2N] | 3.78
12 | HIKKSPGEKPHRCPQCGKCFARKS [K2I] | 2.98
13 | HHKKSPGEKPHRCPQCGKCFARKS [K2H] | 3.27
14 | HYKKSPGEKPHRCPQCGKCFARKS [K2Y] | 2.37
15 | HAKKSPGEKPHRCPQCGKCFARKS [K2A] | 3.42
16 | HFKKSPGEKPHRCPQCGKCFARKS [K2F] | 3.32
17 | HDKKSPGEKPHRCPQCGKCFARKS [K2D] | 2.92
18 | HKKKSPGAKPHRCPQCGKCFARKS [E8A] | 3.41
19 | HKKKSPGNKPHRCPQCGKCFARKS [E8N] | 2.75
20 | HKKKSPGFKPHRCPQCGKCFARKS [E8F] | 3.14
21 | HKKKSPGIKPHRCPQCGKCFARKS [E8I] | 3.17
22 | HKKKSPGCKPHRCPQCGKCFARKS [E8C] | 3.64
23 | HKKKSPGKKPHRCPQCGKCFARKS [E8K] | 3.57
24 | HKKKSPGHKPHRCPQCGKCFARKS [E8H] | 3.92

Row | Variant | protein stability index
25 | HKKKSPGLKPHRCPQCGKCFARKS [E8L] | 3.01
26 | HKKKSPGDKPHRCPQCGKCFARKS [E8D] | 3.81
27 | HKKKSPGMKPHRCPQCGKCFARKS [E8M] | 2.93
28 | HKKMSPGEKPHRCPQCGKCFARKS [K4M] | 3.37
29 | HKKHSPGEKPHRCPQCGKCFARKS [K4H] | 3.41
30 | HKKLSPGEKPHRCPQCGKCFARKS [K4L] | 4.2
31 | HKKWSPGEKPHRCPQCGKCFARKS [K4W] | 2.98
32 | HKKGSPGEKPHRCPQCGKCFARKS [K4G] | 3.13
33 | HKKQSPGEKPHRCPQCGKCFARKS [K4Q] | 2.84
34 | HKKPSPGEKPHRCPQCGKCFARKS [K4P] | 3.72
35 | HKKSSPGEKPHRCPQCGKCFARKS [K4S] | 3.14
36 | HKKTSPGEKPHRCPQCGKCFARKS [K4T] | 3.89
37 | HKKCSPGEKPHRCPQCGKCFARKS [K4C] | 3.75
38 | HKKRSPGEKPHRCPQCGKCFARKS [K4R] | 4.01
39 | HKKVSPGEKPHRCPQCGKCFARKS [K4V] | 3.66
40 | HKKYSPGEKPHRCPQCGKCFARKS [K4Y] | 2.33
41 | HKKFSPGEKPHRCPQCGKCFARKS [K4F] | 3.52
42 | HKKASPGEKPHRCPQCGKCFARKS [K4A] | 2.87
43 | YKKKSPGEKPHRCPQCGKCFARKS [H1Y] | 3.16
44 | HKKKVPGEKPHRCPQCGKCFARKS [S5V] | 2.77
45 | HKKKEPGEKPHRCPQCGKCFARKS [S5E] | 3.7
46 | HKKKAPGEKPHRCPQCGKCFARKS [S5A] | 4.1
47 | HKKKIPGEKPHRCPQCGKCFARKS [S5I] | 3.26
48 | HKKKYPGEKPHRCPQCGKCFARKS [S5Y] | 3.55

Row | Variant | protein stability index
49 | HKKKHPGEKPHRCPQCGKCFARKS [S5H] | 3.32
50 | HKKKQPGEKPHRCPQCGKCFARKS [S5Q] | 3.84
51 | HKKKPPGEKPHRCPQCGKCFARKS [S5P] | 2.71
52 | HKKKMPGEKPHRCPQCGKCFARKS [S5M] | 3.18
53 | HKKKLPGEKPHRCPQCGKCFARKS [S5L] | 3.23
54 | HKKKFPGEKPHRCPQCGKCFARKS [S5F] | 3.4
55 | HKKKNPGEKPHRCPQCGKCFARKS [S5N] | 3.88
56 | HKKKSPIEKPHRCPQCGKCFARKS [G7I] | 2.94
57 | HKKKSPYEKPHRCPQCGKCFARKS [G7Y] | 3.55
58 | HKKKSPSEKPHRCPQCGKCFARKS [G7S] | 3.36
59 | HKKKSPMEKPHRCPQCGKCFARKS [G7M] | 3.46
60 | HKKKSPFEKPHRCPQCGKCFARKS [G7F] | 3.53
61 | HKKKSPTEKPHRCPQCGKCFARKS [G7T] | 3.58
62 | HKKKSPNEKPHRCPQCGKCFARKS [G7N] | 3.52
63 | HKKKSPQEKPHRCPQCGKCFARKS [G7Q] | 3.2
64 | HKKKSPVEKPHRCPQCGKCFARKS [G7V] | 3.76
65 | HKKKSPAEKPHRCPQCGKCFARKS [G7A] | 3.46
66 | HKKKSPPEKPHRCPQCGKCFARKS [G7P] | 4.25
67 | HKQKSPGEKPHRCPQCGKCFARKS [K3Q] | 3.14
68 | HKIKSPGEKPHRCPQCGKCFARKS [K3I] | 3.15
69 | HKHKSPGEKPHRCPQCGKCFARKS [K3H] | 4.24
70 | HKPKSPGEKPHRCPQCGKCFARKS [K3P] | 3.12
71 | HKGKSPGEKPHRCPQCGKCFARKS [K3G] | 3.33
72 | HKMKSPGEKPHRCPQCGKCFARKS [K3M] | 3.42

Row | Variant | protein stability index
73 | HKVKSPGEKPHRCPQCGKCFARKS [K3V] | 3.51
74 | HKTKSPGEKPHRCPQCGKCFARKS [K3T] | 2.07
75 | HKFKSPGEKPHRCPQCGKCFARKS [K3F] | 3.19
76 | HKWKSPGEKPHRCPQCGKCFARKS [K3W] | 3.1
77 | HKLKSPGEKPHRCPQCGKCFARKS [K3L] | 3.46
78 | HKYKSPGEKPHRCPQCGKCFARKS [K3Y] | 2.02
79 | HKAKSPGEKPHRCPQCGKCFARKS [K3A] | 3.73
80 | HKRKSPGEKPHRCPQCGKCFARKS [K3R] | 3.46
81 | HKDKSPGEKPHRCPQCGKCFARKS [K3D] | 2.5
82 | HKKKSGGEKPHRCPQCGKCFARKS [P6G] | 4.52
83 | HKKKSQGEKPHRCPQCGKCFARKS [P6Q] | 3.57
84 | HKKKSTGEKPHRCPQCGKCFARKS [P6T] | 4.38
85 | HKKKSKGEKPHRCPQCGKCFARKS [P6K] | 3.39
86 | HKKKSIGEKPHRCPQCGKCFARKS [P6I] | 3.19
87 | HKKKSRGEKPHRCPQCGKCFARKS [P6R] | 3.51
88 | HKKKSNGEKPHRCPQCGKCFARKS [P6N] | 3.44
89 | HKKKSFGEKPHRCPQCGKCFARKS [P6F] | 3.36
90 | HKKKSWGEKPHRCPQCGKCFARKS [P6W] | 3.05
91 | HKKKSYGEKPHRCPQCGKCFARKS [P6Y] | 3.94
92 | HKKKSEGEKPHRCPQCGKCFARKS [P6E] | 3.4
93 | HKKKSDGEKPHRCPQCGKCFARKS [P6D] | 2.73
94 | HKKKSVGEKPHRCPQCGKCFARKS [P6V] | 2.98

Source: the supplement of paper PMC10567573
